# Publication PMC8305194, “Structural, Mechanistic, and Functional Insights into an Arthrobacter nicotinovorans Molybdenum Hydroxylase Involved in Nicotine Degradation” (Molecules, 2021)
# Substitutions are numbered along the chain they refer to. Numbers in names are those of the source.
# T1: Kdh holoenzyme, FAD site in KdhM (Paenarthrobacter nicotinovorans, UniProt O87681)
# T1 construct: gene kdhA; same holoenzyme as P1; KdhM 287 residues, 32 kDa, holds FAD; with 6-hydroxypseudooxynicotine dehydrogenase complex subunit gamma; 6-hydroxypseudooxynicotine dehydrogenase complex subunit beta
# T1 sequence (O87681 1-296): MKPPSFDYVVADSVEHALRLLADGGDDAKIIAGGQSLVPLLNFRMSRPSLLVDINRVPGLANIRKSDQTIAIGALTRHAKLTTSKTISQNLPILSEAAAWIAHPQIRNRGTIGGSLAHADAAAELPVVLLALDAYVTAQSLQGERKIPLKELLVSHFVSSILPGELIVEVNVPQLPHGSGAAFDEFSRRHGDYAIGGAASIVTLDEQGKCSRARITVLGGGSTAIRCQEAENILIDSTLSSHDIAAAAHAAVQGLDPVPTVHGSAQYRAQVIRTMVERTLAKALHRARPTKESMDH
# T1 sequence (Q933N0 1-794 partner): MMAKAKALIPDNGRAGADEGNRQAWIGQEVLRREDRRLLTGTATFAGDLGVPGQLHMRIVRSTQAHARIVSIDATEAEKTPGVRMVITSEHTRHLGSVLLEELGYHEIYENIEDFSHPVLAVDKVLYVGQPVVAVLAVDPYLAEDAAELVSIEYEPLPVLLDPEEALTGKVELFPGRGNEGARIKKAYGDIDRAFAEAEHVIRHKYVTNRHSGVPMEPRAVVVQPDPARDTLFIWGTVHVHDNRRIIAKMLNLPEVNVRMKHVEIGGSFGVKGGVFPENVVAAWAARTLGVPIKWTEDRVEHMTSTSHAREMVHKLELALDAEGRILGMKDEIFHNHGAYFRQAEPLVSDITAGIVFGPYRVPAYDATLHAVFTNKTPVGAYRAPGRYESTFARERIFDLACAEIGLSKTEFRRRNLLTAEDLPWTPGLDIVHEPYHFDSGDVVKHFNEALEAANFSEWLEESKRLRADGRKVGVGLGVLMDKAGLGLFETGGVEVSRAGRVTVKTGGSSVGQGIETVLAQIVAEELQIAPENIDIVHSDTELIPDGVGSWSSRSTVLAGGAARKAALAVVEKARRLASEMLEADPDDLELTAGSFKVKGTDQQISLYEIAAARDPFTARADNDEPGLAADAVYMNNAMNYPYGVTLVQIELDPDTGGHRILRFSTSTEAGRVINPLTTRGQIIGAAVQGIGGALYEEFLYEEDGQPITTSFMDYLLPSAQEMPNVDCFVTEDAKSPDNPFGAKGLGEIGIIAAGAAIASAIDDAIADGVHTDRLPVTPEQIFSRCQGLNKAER
# T1 sequence (O87682 2-160 partner): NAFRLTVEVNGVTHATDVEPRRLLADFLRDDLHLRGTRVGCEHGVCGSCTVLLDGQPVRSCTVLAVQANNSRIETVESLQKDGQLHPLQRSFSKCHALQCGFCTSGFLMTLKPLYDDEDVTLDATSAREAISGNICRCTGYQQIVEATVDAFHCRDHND
# T2: Kdh holoenzyme (KdhL, KdhM, KdhS); 6-hydroxypseudooxynicotine 2-oxidoreductase; ketone dehydrogenase (Paenarthrobacter nicotinovorans, UniProt Q933N0)
# T2 construct: gene kdhC; kdhLMS co-expressed from pART2-kdhLMS in A. nicotinovorans pAO1; Ni-NTA (tag not described) and Superdex 200; KdhL 87 kDa, KdhM 287 residues, KdhS 160 residues; heterotrimer, dimer of heterotrimers in crystal; with 6-hydroxypseudooxynicotine dehydrogenase complex subunit alpha; 6-hydroxypseudooxynicotine dehydrogenase complex subunit beta
# T2 sequence (Q933N0 1-794): T1 sequence (Q933N0 1-794 partner)
# T2 sequence (O87681 1-296 partner): T1 sequence (O87681 1-296)
# T2 sequence (O87682 2-160 partner): T1 sequence (O87682 2-160 partner)
# B1: Kdh holoenzyme (KdhL, KdhM, KdhS); 6-hydroxypseudooxynicotine 2-oxidoreductase; ketone dehydrogenase (Paenarthrobacter nicotinovorans) (protein)
# chain: T1 sequence (Q933N0 1-794 partner)
# notes: kdhLMS co-expressed from pART2-kdhLMS in A. nicotinovorans pAO1; Ni-NTA (tag not described) and Superdex 200; KdhL 87 kDa, KdhM 287 residues, KdhS 160 residues; heterotrimer, dimer of heterotrimers in crystal; with 6-hydroxypseudooxynicotine dehydrogenase complex subunit alpha; 6-hydroxypseudooxynicotine dehydrogenase complex subunit beta
# B2: Kdh holoenzyme (KdhL, KdhM, KdhS); 6-hydroxypseudooxynicotine 2-oxidoreductase; ketone dehydrogenase (Paenarthrobacter nicotinovorans; F269A) (protein)
# chain: T1 sequence (Q933N0 1-794 partner) with F269A
# notes: as for B1
# B3: Kdh holoenzyme (KdhL, KdhM, KdhS); 6-hydroxypseudooxynicotine 2-oxidoreductase; ketone dehydrogenase (Paenarthrobacter nicotinovorans; R383A) (protein)
# chain: T1 sequence (Q933N0 1-794 partner) with R383A
# notes: as for B1
# B4: Kdh holoenzyme (heterotrimer of KdhL, KdhM and KdhS) (complex, Arthrobacter nicotinovorans)
# chain 1: MMAKAKALIPDNGRAGADEGNRQAWIGQEVLRREDRRLLTGTATFAGDLGVPGQLHMRIVRSTQAHARIVSIDATEAEKTPGVRMVITSEHTRHLGSVLLEELGYHEIYENIEDFSHPVLAVDKVLYVGQPVVAVLAVDPYLAEDAAELVSIEYEPLPVLLDPEEALTGKVELFPGRGNEGARIKKAYGDIDRAFAEAEHVIRHKYVTNRHSGVPMEPRAVVVQPDPARDTLFIWGTVHVHDNRRIIAKMLNLPEVNVRMKHVEIGGSFGVKGGVFPENVVAAWAARTLGVPIKWTEDRVEHMTSTSHAREMVHKLELALDAEGRILGMKDEIFHNHGAYFRQAEPLVSDITAGIVFGPYRVPAYDATLHAVFTNKTPVGAYRAPGRYESTFARERIFDLACAEIGLSKTEFRRRNLLTAEDLPWTPGLDIVHEPYHFDSGDVVKHFNEALEAANFSEWLEESKRLRADGRKVGVGLGVLMDKAGLGLFETGGVEVSRAGRVTVKTGGSSVGQGIETVLAQIVAEELQIAPENIDIVHSDTELIPDGVGSWSSRSTVLAGGAARKAALAVVEKARRLASEMLEADPDDLELTAGSFKVKGTDQQISLYEIAAARDPFTARADNDEPGLAADAVYMNNAMNYPYGVTLVQIELDPDTGGHRILRFSTSTEAGRVINPLTTRGQIIGAAVQGIGGALYEEFLYEEDGQPITTSFMDYLLPSAQEMPNVDCFVTEDAKSPDNPFGAKGLGEIGIIAAGAAIASAIDDAIADGVHTDRLPVTPEQIFSRCQGLN
# chain 2: MKPPSFDYVVADSVEHALRLLADGGDDAKIIAGGQSLVPLLNFRMSRPSLLVDINRVPGLANIRKSDQTIAIGALTRHAKLTTSKTISQNLPILSEAAAWIAHPQIRNRGTIGGSLAHADAAAELPVVLLALDAYVTAQSLQGERKIPLKELLVSHFVSSILPGELIVEVNVPQLPHGSGAAFDEFSRRHGDYAIGGAASIVTLDEQGKCSRARITVLGGGSTAIRCQEAENILIDSTLSSHDIAAAAHAAVQGLDPVPTVHGSAQYRAQVIRTMVERTLAKALHRA
# chain 3: MNAFRLTVEVNGVTHATDVEPRRLLADFLRDDLHLRGTRVGCEHGVCGSCTVLLDGQPVRSCTVLAVQANNSRIETVESLQKDGQLHPLQRSFSKCHALQCGFCTSGFLMTLKPLYDDEDVTLDATSAREAISGNICRCTGYQQIVEATVDAFHCRDHND
# notes: KdhL, 87 kDa molybdopterin (MCD) subunit of Kdh, Arthrobacter nicotinovorans; KdhM, 32 kDa FAD subunit of Kdh, Arthrobacter nicotinovorans; contains 287 residues; KdhS, 17.6 kDa Fe2S2 subunit of Kdh, Arthrobacter nicotinovorans; has 160 residues; Heterotrimer with MCD, two Fe2S2 and FAD; two heterotrimers form the dimer seen in the crystal; also called ketone dehydrogenase; …
# Columns and labels:
# [1] = target: T1, Kdh holoenzyme, FAD site in KdhM; assay: X-ray crystal structure, […] Å; assay type: binding; details: co-purified cofactor
# [2] = target: T2, Kdh holoenzyme (KdhL, KdhM, KdhS); 6-hydroxypseudooxynicotine 2-oxidoreductase; ketone dehydrogenase; assay: X-ray crystal structure, […] Å; assay type: binding; details: co-purified cofactor, MCD site in KdhL
# purified protein = substrate: CNCCCC(=O)c1ccc(O)nc1; assay: purified protein; assay type: biochemical, Paenarthrobacter nicotinovorans; details: 500 μM PMS, 50 μM DCIP, aerobic, 30 °C
# [3] = target: the molecule itself; assay: crystal structure; Kdh holoenzyme crystallised by hanging-drop vapor diffusion at 14 °C; 1% tryptone, 0.1 M Tris-HCl pH 8.0, 25% PEG 3350; space group P212121, two heterotrimers per asymmetric unit; 3.4 Å
# [4] = pH 8.0, Tris-HCl per Table 2 (Table 3 lists the same value under PBS pH 8.0)
Molecule,Km (purified protein; Tris-HCl pH 8.0),kcat (purified protein; Tris-HCl pH 8.0),kcat/Km (purified protein; Tris-HCl pH 8.0),also measured
Cc1cc2nc3c(=O)[nH]c(=O)nc-3n(C[C@H](O)[C@H](O)[C@H](O)COP(=O)(O)OP(=O)(O)OC[C@H]3O[C@@H](n4cnc5c(N)ncnc54)[C@H](O)[C@@H]3O)c2cc1C [FAD],–,–,–,"X-ray crystal structure, 3.4 Å [1]: the KdhM-bound FAD cofactor is relatively less restricted from the exterior"
Nc1ccn([C@@H]2O[C@H](COP(=O)(O)OP(=O)(O)OC[C@H]3O[C@H]4Nc5nc(N)[nH]c(=O)c5N[C@H]4C(S)=C3S)[C@@H](O)[C@H]2O)c(=O)n1 [MCD],–,–,–,"X-ray crystal structure, 3.4 Å [2]: the MCD cofactor is at the center of their intersection"
B1,–,–,–,Km (purified protein; [4]): 12.5 ± 0.9 µM; kcat (purified protein; [4]): 9.03 ± 0.12 s⁻¹; kcat/Km (purified protein; [4]): 720000 ± 130000 M⁻¹ s⁻¹
B2,25.98 ± 2.73 µM,2.3 ± 0.07 s⁻¹,90000 ± 30000 M⁻¹ s⁻¹,–
B3,21.4 ± 2.3 µM,6.32 ± 0.16 s⁻¹,300000 ± 70000 M⁻¹ s⁻¹,–
B4,–,–,–,stoichiometry N [3]: 2
